Substrate: NC(=O)c1ccc[n+]([C@@H]2O[C@H](COP(=O)([O-])OP(=O)(O)OC[C@H]3O[C@@H](n4cnc5c(N)ncnc54)[C@H](O)[C@@H]3O)[C@@H](O)[C@H]2O)c1
Assay: purified protein
Settings: NAD^+ binding (NB) domain; varied: cofactor

B1: cUGDH (C. elegans UDP-glucose dehydrogenase) (Caenorhabditis elegans) (protein)
chain: MTDQVFGKVSKVVCVGAGYVGGPTCAMIAHKCPHITVTVVDMNTAKIAEWNSDKLPIYEPGLDEIVFAARGRNLFFSSDIPKAIAEADLIFISVNTPTKMYGRGKGMAPDLKYVESVSRTIAQYAGGPKIVVEKSTVPVKAAESIGCILREAQKNNENLKFQVLSNPEFLAEGTAMKDLANPDRVLIGGESSPEGLQAVAELVRIYENWVPRNRIITTNTWSSELSKLVANAFLAQRISSINSISAVCEATGAEISEVAHAVGYDTRIGSKFLQASVGFGGSCFQKDVLSLVYLCESLNLPQVADYWQGVININNWQRRRFADKIIAELFNTVTDKKIAIFGFAFKKNTGDTRESSAIHVIKHLMEEHAKLSVYDPKVQKSQMLNDLASVTSAQDVERLITVESDPYAAARGAHAIVVLTEWDEFVELNYSQIHNDMQHPAAIFDGRLILDQKALREIGFRTFAIGTSPDQAYNLFGTAGY
- K0.5: 333 ± 18 µM

B2: hUGDH (human UDP-glucose dehydrogenase) (Homo sapiens) (protein)
chain: MFEIKKICCIGAGYVGGPTCSVIAHMCPEIRVTVVDVNESRINAWNSPTLPIYEPGLKEVVESCRGKNLFFSTNIDDAIKEADLVFISVNTPTKTYGMGKGRAADLKYIEACARRIVQNSNGYKIVTEKSTVPVRAAESIRRIFDANTKPNLNLQVLSNPEFLAEGTAIKDLKNPDRVLIGGDETPEGQRAVQALCAVYEHWVPREKILTTNTWSSELSKLAANAFLAQRISSINSISALCEATGADVEEVATAIGMDQRIGNKFLKASVGFGGSCFQKDVLNLVYLCEALNLPEVARYWQQVIDMNDYQRRRFASRIIDSLFNTVTDKKIAILGFAFKKDTGDTRESSSIYISKYLMDEGAHLHIYDPKVPREQIVVDLSHPGVSEDDQVSRLVTISKDPYEACDGAHAVVICTEWDMFKELDYERIHKKMLKPAFIFDGRRVLDGLHNELQTIGFQIETIGKKVSSKRIPYAPSGEIPKFSLQDPPNKKPKV
- K0.5: 1094 ± 244 µM

From PMC6788056
